From patent US20210147513A1 (published 2021)
Residue numbers refer to the chain shown, from its start.

T1: S protein of live MERS-CoV EMC/2012 (MERS-CoV)
T1 chain: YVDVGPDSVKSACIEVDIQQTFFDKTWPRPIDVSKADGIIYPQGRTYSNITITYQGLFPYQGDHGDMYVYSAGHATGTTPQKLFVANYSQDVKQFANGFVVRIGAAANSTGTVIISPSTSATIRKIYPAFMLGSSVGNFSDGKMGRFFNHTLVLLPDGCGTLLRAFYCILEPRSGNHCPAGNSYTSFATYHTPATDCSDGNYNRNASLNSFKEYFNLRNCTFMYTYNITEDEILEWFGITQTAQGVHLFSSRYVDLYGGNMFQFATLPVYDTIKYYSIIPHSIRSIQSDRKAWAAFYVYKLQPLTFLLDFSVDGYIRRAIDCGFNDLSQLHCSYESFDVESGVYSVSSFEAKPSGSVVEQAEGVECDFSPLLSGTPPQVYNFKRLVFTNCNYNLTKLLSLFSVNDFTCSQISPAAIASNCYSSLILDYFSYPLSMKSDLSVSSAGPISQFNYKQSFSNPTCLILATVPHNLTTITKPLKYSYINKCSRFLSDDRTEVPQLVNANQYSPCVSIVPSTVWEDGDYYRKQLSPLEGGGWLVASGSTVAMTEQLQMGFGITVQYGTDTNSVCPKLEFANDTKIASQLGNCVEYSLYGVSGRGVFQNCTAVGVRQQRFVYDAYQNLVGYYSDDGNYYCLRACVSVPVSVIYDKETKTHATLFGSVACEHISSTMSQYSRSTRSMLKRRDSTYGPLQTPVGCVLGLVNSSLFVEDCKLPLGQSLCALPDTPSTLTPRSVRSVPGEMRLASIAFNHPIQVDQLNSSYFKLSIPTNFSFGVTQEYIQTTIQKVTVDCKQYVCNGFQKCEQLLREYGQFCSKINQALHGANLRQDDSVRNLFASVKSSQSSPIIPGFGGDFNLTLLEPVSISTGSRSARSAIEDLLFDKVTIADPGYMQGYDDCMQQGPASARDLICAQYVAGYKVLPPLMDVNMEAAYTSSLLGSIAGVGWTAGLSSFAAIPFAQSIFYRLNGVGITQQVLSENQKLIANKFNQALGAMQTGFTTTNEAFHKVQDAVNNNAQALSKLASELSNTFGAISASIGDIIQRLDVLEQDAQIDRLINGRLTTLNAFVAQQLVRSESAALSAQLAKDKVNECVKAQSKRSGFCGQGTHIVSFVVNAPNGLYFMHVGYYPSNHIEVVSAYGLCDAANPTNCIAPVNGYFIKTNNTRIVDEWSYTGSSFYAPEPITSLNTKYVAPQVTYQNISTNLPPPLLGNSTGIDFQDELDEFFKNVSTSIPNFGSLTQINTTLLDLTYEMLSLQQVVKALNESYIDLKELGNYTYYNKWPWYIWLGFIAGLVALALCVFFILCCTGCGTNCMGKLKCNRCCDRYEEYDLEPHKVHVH

B1: 1F8 IgG1 (antibody, V domains shown)
VH: EVQLVQSGAEVKEPGSSVKVSCKASGGTFGSYAINWVRQAPGQRLEWMGWIDAANGNTKYSQKFQGRVTITGDTSASTAYMELSSLRSEDTAVYYCARDRWMTTRAFDIWGQGTMVTVSS
VL: QPVLTQPPSASGTPGQRVTISCSGSSSNIGSNYVFWYQQLPGMAPKLLISRNNQRPSGVPDRFSGSKSGTSASLAISGPQSEDEADYYCAAWDDSLRGPVFGGGTRVTVL
B2: 3B12 scFvFc (scFv, V domains shown)
VH: QVQLVQSGAEVKKPGSSVKVSCKASGGTFSSYAISWVRQAPGQGLEWMGGIIPIFGTANYAQKFQGRVTITADKSTSTAYMELSSLRSEDTAVYYCARASYCSTTSCASGAFDIWGQGTLVTVSS
VL: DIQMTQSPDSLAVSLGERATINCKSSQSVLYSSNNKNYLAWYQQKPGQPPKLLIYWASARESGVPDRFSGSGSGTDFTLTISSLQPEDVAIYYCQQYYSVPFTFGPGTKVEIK
B3: 3B11 IgG1 (antibody, V domains shown)
VH: B2 VH with A99V, S100G, T104S, A108H, S109I, L120T
VL: ETTLTQSPGTLSLSPGERATLSCRASQSVSSSIAWYQQKPGQAPRLLMFDSSTRATGIPDRFSGSGSGTDFTLNISSLEPEDFAVYYCQQYSSSPYTFGQGTKLEIK
B4: 3A1 scFvFc (scFv, V domains shown)
VH: QVQLVQSGAEVKKPGSSVKVSCKASGGTFSSYAVSWVRQAPGQGLEWVGRIIPIFGKANYAQKFQGRVTITADKSTSTAYMELSSLRPEDTAVYYCARDQGISANFKDAFDIWGQGTTVTVSS
VL: ETTLTQSPATLSVSPGERATLSCRASESVGSNLAWYQQKPGQAPSLLIYGASTRATGIPDRFSGSGSGTDFTLTISSLQSEDFAAYYCQQYNNWPLTFGPGTKVEIK
B5: 3A1 IgG1 (antibody, V domains shown)
VH: B4 VH
VL: B4 VL

Legend:
[1] = molecular target: S protein of live MERS-CoV EMC/2012 (MERS-CoV); test: cell-based or functional assay
[2] = molecular target: T1, S protein of live MERS-CoV EMC/2012; test: cell-based or functional assay

Binder | IC50 (µg/ml), PRNT50 live virus, wt. [1] | IC50 (µg/ml), PRNT50 live virus, wt. [2]
B1 | 4.05 µg/mL | 
B2 |  | 1.25 µg/mL
B3 | 3.5 µg/mL | 
B4 | 1.46 µg/mL | 
B5 | 4.5 µg/mL | 
